Data on three molecules can be found in US20140227291A1 (AbbVie / Abbott, published 2014).

Test [1] has as its target T1, Abeta(1-40) monomer in 0.1% NH4OH (human).
T1 construct: also called Abeta(1-40) monomer, 0.1% NH4OH
Kind of test: dot blot: antigen dilution series dotted on nitrocellulose, anti-mouse-IgG-POD detection. The protocol:
(§1) In order to characterize the selectivity of monoclonal anti Aβ(20-42) globulomer antibodies, they were tested for binding to different Aβ-forms. To this end, serial dilutions of the individual Aβ(1-42) forms ranging from 100 pmol/μl to 0.00001 pmol/μl in PBS supplemented with 0.2 mg/ml BSA were prepared. 1 μl of each dilution was blotted onto a nitrocellulose membrane. Detection was performed by incubating with the corresponding antibody (0.2 μg/ml) followed by immunostaining using Peroxidase conjugated anti-mouse-IgG and the staining reagent BM Blue POD Substrate (Roche).
(§2) The individual Aβ forms were applied in serial dilutions and incubated with the respective antibodies for immune reaction (1=Aβ(1-42) monomer, 0.1% NH₄OH; 2=Aβ(1-40) monomer, 0.1% NH₄OH; 3=Aβ(1-42) monomer, 0.1% NaOH; 4=Aβ(1-40) monomer, 0.1% NaOH; 5=Aβ(1-42) globulomer; 6=Aβ(12-42) globulomer; 7=Aβ(20-42) globulomer; 8=Aβ(1-42) fibril preparation; 9=sAPPα (Sigma); (first dot: 1 pmol)).

For test [2], the target named is T2, Abeta(1-42) globulomer (human, UniProt P05067 672-713).
T2 construct: also called 38/48-kDa Abeta(1-42) globulomer
The test is described as above. The protocol:
as §1, §2

Test [3] addresses T3, Abeta(1-40) monomer in 0.1% NaOH (human).
T3 construct: also called Abeta(1-40) monomer, 0.1% NaOH
Described as above. On the procedure: as §1, §2

The target in test [4] is T4, Abeta(1-42) monomer in 0.1% NH4OH (human).
T4 construct: also called Abeta(1-42) monomer, 0.1% NH4OH
The description is as above. The protocol: as §1, §2

The target of test [5] is T5, Abeta(1-42) monomer in 0.1% NaOH (human).
T5 construct: also called Abeta(1-42) monomer, 0.1% NaOH
The test is described as above. The protocol: as §1, §2

In test [6] the target is T6, Abeta(1-42) fibril preparation (human, UniProt P05067 672-713).
T6 construct: also called Abeta(1-42) fibrils
Described as above. The protocol:
as §1, §2

The target of test [7] is T7, sAPPalpha (Sigma cat. no. S9564) (UniProt P05067-4 18-612, limits assumed).
T7 construct: Bought protein; also called sAPPα; soluble Abeta precursor
The test is described as above. On the procedure:
as §1, §2

Test [8] deals with T8, Abeta(12-42) globulomer (human).
T8 construct: Oligomer
T8 peptide: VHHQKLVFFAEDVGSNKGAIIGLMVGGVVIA
Described as above. On the procedure:
as §1, §2

The target in test [9] is T9, Abeta(20-42) globulomer (human).
T9 construct: Oligomer; also called amyloid-beta (20-42) globulomer
T9 peptide: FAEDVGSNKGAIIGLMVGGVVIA
Kind of test: dot blot, antigen dilution series on nitrocellulose, antibody 0.2 µg/ml, densitometry; reference antigen. The protocol:
(§3) The dot blot was developed with 10 ml BM Blue POD Substrate for 10 min. The development was stopped by intense washing of the dot blot with H₂O. Quantitative evaluation was done based on a densitometric analysis (GS800 densitometer (BioRad) and software package Quantity one, Version 4.5.0 (Bio-Rad)) of the dot intensity. […] This threshold value was determined for every dot blot independently. The calculated value indicates the relation between recognition of Aβ(20-42) globulomer and the respective Aβ form for the given antibody.
as §2

Test [10] concerns the target T1, Abeta(1-40) monomer in 0.1% NH4OH. The experiment in a line: dot blot, antigen dilution series on nitrocellulose, antibody 0.2 µg/ml, densitometry. On the procedure: as §3, §2
The target of test [11] is T2, Abeta(1-42) globulomer. The description is as above. The protocol:
as §3, §2

Test [12] deals with T3, Abeta(1-40) monomer in 0.1% NaOH. Described as above. On the procedure:
as §3, §2

The target of test [13] is T4, Abeta(1-42) monomer in 0.1% NH4OH. The test is described as above. The protocol: as §3, §2
The target in test [14] is T5, Abeta(1-42) monomer in 0.1% NaOH. Described as above. The protocol:
as §3, §2

Test [15] concerns the target T6, Abeta(1-42) fibril preparation. The test is described as above. The protocol:
as §3, §2

For test [16], the target named is T8, Abeta(12-42) globulomer. The test is described as above. The protocol:
as §3, §2

The target in test [17] is T7, sAPPalpha (Sigma cat. no. S9564). Kind of test: dot blot, antigen dilution series on nitrocellulose (first dot 1 pmol), antibody 0.2 µg/ml, densitometry.

T7 sequence (P05067 other isoform, or with tags, fused parts or gaps limits assumed): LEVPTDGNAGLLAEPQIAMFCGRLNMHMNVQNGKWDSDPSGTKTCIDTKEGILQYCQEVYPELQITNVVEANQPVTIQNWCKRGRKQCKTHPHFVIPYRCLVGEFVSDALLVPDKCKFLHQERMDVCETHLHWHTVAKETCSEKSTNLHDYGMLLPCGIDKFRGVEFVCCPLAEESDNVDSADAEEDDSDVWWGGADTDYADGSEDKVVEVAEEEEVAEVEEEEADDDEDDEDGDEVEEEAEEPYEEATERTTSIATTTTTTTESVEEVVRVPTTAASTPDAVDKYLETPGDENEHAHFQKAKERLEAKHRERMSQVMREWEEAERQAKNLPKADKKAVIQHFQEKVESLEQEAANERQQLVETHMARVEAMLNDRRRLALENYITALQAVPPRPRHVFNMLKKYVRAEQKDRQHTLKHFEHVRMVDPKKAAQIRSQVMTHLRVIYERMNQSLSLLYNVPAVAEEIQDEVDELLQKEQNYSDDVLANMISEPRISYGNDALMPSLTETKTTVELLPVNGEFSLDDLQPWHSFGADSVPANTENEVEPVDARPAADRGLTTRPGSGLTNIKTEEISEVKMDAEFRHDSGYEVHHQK
T1 sequence (peptide, as listed by the source): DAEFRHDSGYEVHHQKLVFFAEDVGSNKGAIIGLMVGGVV
T3 sequence (peptide, as listed by the source): as above

B1: murine monoclonal antibody m4C9 (antibody, V domains shown)
VH: QVQLQQPGAELVKPGASVKLSCKAPGYTFTSYWMHWVKQRPGQGLEWIGRIDPKSGDTKYTEKFKSKATLTVDKPSSTAYMQLSSLTSEDSAVYYCTTMSKLSGTHAWFAYWGQGTLVTVSA
VL: DIKMTQSPSSMYASLGERVTITCKASQDINSYLTWFQQKPGKSPKTLIYRANRLVDGVPSRFSGSGSGQDYSLTISSLEYEDMGIYYCLQYDEFPLTFGAGTKLELK
notes: Murine monoclonal antibody from hybridoma after immunization of mice with Abeta(20-42) globulomer; also called mAb m4C9; mAb 4C9
Consider B1, for which the binding result in test [1], in [2], in test [3], in [4], in test [5] and in test [6] was “no binding” throughout. For the same molecule, the binding result in [7] and in test [8] was “no binding” in each case. Also, the “dot blot ratio (recognition of Abeta(20-42) globulomer relative to this Abeta form)” value in test [9] was found to be 1; in [10] it was 27300; in test [11], 30000; in test [12], 110000; in [13], 36000; in test [14] it was 39500. Also, the “dot blot ratio (recognition of Abeta(20-42) globulomer relative to this Abeta form)” value is 32600 in test [15] and 60000 in [16].

B2: Anti-Abeta monoclonal antibody clone 6E10 (Covance cat. no. SIG-39320) (antibody, V domains shown)
VH: EVQLQQSGAELVKPGASVKLCTASGFNIKDTYIHWVKQRPEQGLEWIGRFDPVNVNTRYDSRFRGKATITSDASSNTAYLHLNSLTSEDTAVYYCSRSYYNGRRRFTYWGQGTLVTVSA
VL: DIVMTQSPSSLTVTAGEKVALTCKASQSLLSSGNQKNYLTWYQQKPGQPPKLLIYWASIRESGVPDRFTGSGSGTFFTLTISSVQAEDLAVYYCQNDYNYPFTFGSGTKLEIK
With B2, the “dot blot ratio (recognition of Abeta(20-42) globulomer relative to this Abeta form)” value in test [17] was 0.2; in [9], 1; in test [16], 6.

B3: murine monoclonal antibody m10B3 (antibody, V domains shown)
VH: EVKLVESGGGLVQPGGSRKLSCAASGFTFSDYEMVWVRQAPGEGLEWVAYISSGSRTIHYADTVKGRFTISRDNPKNTLFLQMSSLRSEDTAMYYCARTLLRLHFDYWGQGTILTVSS
VL: not shown
notes: Murine monoclonal antibody from hybridoma after immunization of mice with Abeta(20-42) globulomer; also called mAb m10B3; mAb 10B3
As to B3, the binding result in test [1], in [2], in test [3], in test [4], in test [5] and in [6] was “no binding” each time. The binding result in [7] and in test [8] was “no binding” in each case.
